Targets include BSGPER_(83–93) (human) (UniProt Q99527); BSGPER_(150–175) (human) (UniProt Q99527); BSGPER_(330–351) (human) (UniProt Q99527); BSGPER_(242–259) (human) (UniProt Q99527).
Common to all, as to assay: other fluorescence titration; Ca2+ titration at saturating CaM: 0.5 µM FRET biosensor, 2 µM X-Rhod5F, 0.1 mg/mL BSA, 0.25 mM Br2BAPTA (3 mM BAPTA and 700 µM CaM for the SMD1 biosensors), 25 mM Tris, 100 mM KCl, pH 7.5, 22°C; start nominally Ca2+-free; free Ca2+ from X-Rhod5F; EC50(Ca2+) from Hill fits

The substance “Calmodulin (CaM), recombinant, from the rat CaMI gene (from UniProt P0DP29 1-149) (natural protein)” yielded an EC50(Ca2+) of complex formation, species 1 with BSGPER_(83–93) (human) of 0.13 µM. This substance also yielded an EC50(Ca2+) of complex formation, species 2 with BSGPER_(83–93) (human) of 3.71 µM. Further, the EC50(Ca2+) of complex formation with BSGPER_(150–175) (human) turned out to be 2.38 µM; with BSGPER_(330–351) (human), 0.75 µM; with BSGPER_(242–259) (human), 5.15 µM.

Values taken from publication PMC3931812.
